Here are results for one substance from paper doi:10.1101/726935.

The term stoichiometry N denotes a count of units in the complex or per binding partner.

The target in the test is EBOV VP35 WT oligomerization domain (Zaire ebolavirus, Yambuku-Mayinga) (UniProt Q05127). The experiment in a line: SEC-MALS.

In the case of “EBOV VP35 WT oligomerization domain (from UniProt Q05127 75-185) (domain or fragment)”, the stoichiometry N came out at 4.
